Reference: patent US20190233493A1 (Sanofi, published 2019)
*1 amine or outer side, *2 acyl side, *3 side chain or, on linkers, in order; H or OH if unused. Side-chain parts run from the residue outwards. [ ]: non-standard residue; d: D form. The star is where a group is joined. PEG12 = NCCOCCOCCOCCOCCOCCOCCOCCOCCOCCOCCOCCOCCC(=O)O; γGlu = O=C(O)[C@H](CCC(=O)[*:2])N[*:1]; 1Nal = N[C@@H](Cc1cccc2ccccc12)C(=O)O; Stearoyl = CCCCCCCCCCCCCCCCCC(=O)*; Palmitoyl = CCCCCCCCCCCCCCCC(=O)*; Nle = CCCC[C@H](N)C(=O)O; Aib = CC(C)(N)C(=O)O

T1: RXFP1 receptor (UniProt Q9HBX9 1-757, limits assumed)
T1 sequence (looked up): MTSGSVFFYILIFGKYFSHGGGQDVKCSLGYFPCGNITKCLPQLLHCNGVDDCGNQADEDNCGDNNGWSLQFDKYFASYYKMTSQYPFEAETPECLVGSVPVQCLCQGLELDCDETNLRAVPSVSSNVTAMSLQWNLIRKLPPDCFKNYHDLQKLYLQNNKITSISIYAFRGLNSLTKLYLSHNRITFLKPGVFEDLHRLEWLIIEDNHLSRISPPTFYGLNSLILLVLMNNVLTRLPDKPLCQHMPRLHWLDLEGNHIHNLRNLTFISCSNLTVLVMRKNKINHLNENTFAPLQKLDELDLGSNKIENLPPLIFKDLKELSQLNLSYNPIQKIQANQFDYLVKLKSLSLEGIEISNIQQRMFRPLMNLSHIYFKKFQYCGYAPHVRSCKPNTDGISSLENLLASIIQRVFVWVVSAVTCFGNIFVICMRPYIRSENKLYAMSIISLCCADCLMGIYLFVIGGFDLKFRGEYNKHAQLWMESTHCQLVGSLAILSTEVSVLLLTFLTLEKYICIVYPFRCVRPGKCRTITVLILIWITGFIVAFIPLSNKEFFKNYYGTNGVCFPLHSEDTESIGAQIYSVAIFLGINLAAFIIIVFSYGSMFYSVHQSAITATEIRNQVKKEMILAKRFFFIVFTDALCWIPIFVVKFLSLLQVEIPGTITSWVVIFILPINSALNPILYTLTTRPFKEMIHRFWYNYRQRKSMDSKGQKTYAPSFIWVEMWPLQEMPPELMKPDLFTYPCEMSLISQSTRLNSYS


biological target: T1, RXFP1 receptor; experiment: cell-based or functional assay

Row | EC50 (nM), OVCAR 5 cells (cAMP) | EMax, OVCAR 5 cells (cAMP) | Binder
1 | 0.61 nM | 100% | Ac-LEGREKVRAK(Ac)I[Aib][Aib]EG[Nle]STWS[Aib]RKK(Ac)[PEG12]K([γGlu-γGlu-γGlu-Stearoyl])-NH2 (SMILES CCCCCCCCCCCCCCCCCC(=O)N[C@@H](CCC(=O)N[C@@H](CCC(=O)N[C@@H](CCC(=O)NCCCC[C@H](NC(=O)CCOCCOCCOCCOCCOCCOCCOCCOCCOCCOCCOCCOCCNC(=O)[C@H](CCCCNC(C)=O)NC(=O)[C@H](CCCCN)NC(=O)[C@H](CCCNC(=N)N)NC(=O)C(C)(C)NC(=O)[C@H](CO)NC(=O)[C@H](Cc1c[nH]c2ccccc12)NC(=O)[C@@H](NC(=O)[C@H](CO)NC(=O)[C@H](CCCC)NC(=O)CNC(=O)[C@H](CCC(=O)O)NC(=O)C(C)(C)NC(=O)C(C)(C)NC(=O)[C@@H](NC(=O)[C@H](CCCCNC(C)=O)NC(=O)[C@H](C)NC(=O)[C@H](CCCNC(=N)N)NC(=O)[C@@H](NC(=O)[C@H](CCCCN)NC(=O)[C@H](CCC(=O)O)NC(=O)[C@H](CCCNC(=N)N)NC(=O)CNC(=O)[C@H](CCC(=O)O)NC(=O)[C@H](CC(C)C)NC(C)=O)C(C)C)[C@@H](C)CC)[C@@H](C)O)C(N)=O)C(=O)O)C(=O)O)C(=O)O) [peptide of SEQ ID NO: 33]
2 | 31.7 nM | 99% | Ac-ELEGREKVRAAI[Aib][Aib]EG[Nle]STWS[Aib]RKK([γGlu-γGlu-Palmitoyl])-NH2 (SMILES CCCCCCCCCCCCCCCC(=O)N[C@@H](CCC(=O)N[C@@H](CCC(=O)NCCCC[C@H](NC(=O)[C@H](CCCCN)NC(=O)[C@H](CCCNC(=N)N)NC(=O)C(C)(C)NC(=O)[C@H](CO)NC(=O)[C@H](Cc1c[nH]c2ccccc12)NC(=O)[C@@H](NC(=O)[C@H](CO)NC(=O)[C@H](CCCC)NC(=O)CNC(=O)[C@H](CCC(=O)O)NC(=O)C(C)(C)NC(=O)C(C)(C)NC(=O)[C@@H](NC(=O)[C@H](C)NC(=O)[C@H](C)NC(=O)[C@H](CCCNC(=N)N)NC(=O)[C@@H](NC(=O)[C@H](CCCCN)NC(=O)[C@H](CCC(=O)O)NC(=O)[C@H](CCCNC(=N)N)NC(=O)CNC(=O)[C@H](CCC(=O)O)NC(=O)[C@H](CC(C)C)NC(=O)[C@H](CCC(=O)O)NC(C)=O)C(C)C)[C@@H](C)CC)[C@@H](C)O)C(N)=O)C(=O)O)C(=O)O) [peptide of SEQ ID NO: 4]
3 | 1.04 nM | 96% | Ac-LEGREKVRAK(Ac)I[Aib][Aib]EG[Nle]STWS[Aib]RKK[PEG12]K([γGlu-γGlu-γGlu-Stearoyl])-NH2 (SMILES CCCCCCCCCCCCCCCCCC(=O)N[C@@H](CCC(=O)N[C@@H](CCC(=O)N[C@@H](CCC(=O)NCCCC[C@H](NC(=O)CCOCCOCCOCCOCCOCCOCCOCCOCCOCCOCCOCCOCCNC(=O)[C@H](CCCCN)NC(=O)[C@H](CCCCN)NC(=O)[C@H](CCCNC(=N)N)NC(=O)C(C)(C)NC(=O)[C@H](CO)NC(=O)[C@H](Cc1c[nH]c2ccccc12)NC(=O)[C@@H](NC(=O)[C@H](CO)NC(=O)[C@H](CCCC)NC(=O)CNC(=O)[C@H](CCC(=O)O)NC(=O)C(C)(C)NC(=O)C(C)(C)NC(=O)[C@@H](NC(=O)[C@H](CCCCNC(C)=O)NC(=O)[C@H](C)NC(=O)[C@H](CCCNC(=N)N)NC(=O)[C@@H](NC(=O)[C@H](CCCCN)NC(=O)[C@H](CCC(=O)O)NC(=O)[C@H](CCCNC(=N)N)NC(=O)CNC(=O)[C@H](CCC(=O)O)NC(=O)[C@H](CC(C)C)NC(C)=O)C(C)C)[C@@H](C)CC)[C@@H](C)O)C(N)=O)C(=O)O)C(=O)O)C(=O)O) [peptide of SEQ ID NO: 32]
4 | 0.71 nM | 86% | Ac-LEGREKVRAQI[Aib][Aib]EG[Nle]STWS[Aib]RKK[PEG12]K([γGlu-γGlu-γGlu-Stearoyl])-NH2 (SMILES CCCCCCCCCCCCCCCCCC(=O)N[C@@H](CCC(=O)N[C@@H](CCC(=O)N[C@@H](CCC(=O)NCCCC[C@H](NC(=O)CCOCCOCCOCCOCCOCCOCCOCCOCCOCCOCCOCCOCCNC(=O)[C@H](CCCCN)NC(=O)[C@H](CCCCN)NC(=O)[C@H](CCCNC(=N)N)NC(=O)C(C)(C)NC(=O)[C@H](CO)NC(=O)[C@H](Cc1c[nH]c2ccccc12)NC(=O)[C@@H](NC(=O)[C@H](CO)NC(=O)[C@H](CCCC)NC(=O)CNC(=O)[C@H](CCC(=O)O)NC(=O)C(C)(C)NC(=O)C(C)(C)NC(=O)[C@@H](NC(=O)[C@H](CCC(N)=O)NC(=O)[C@H](C)NC(=O)[C@H](CCCNC(=N)N)NC(=O)[C@@H](NC(=O)[C@H](CCCCN)NC(=O)[C@H](CCC(=O)O)NC(=O)[C@H](CCCNC(=N)N)NC(=O)CNC(=O)[C@H](CCC(=O)O)NC(=O)[C@H](CC(C)C)NC(C)=O)C(C)C)[C@@H](C)CC)[C@@H](C)O)C(N)=O)C(=O)O)C(=O)O)C(=O)O) [peptide of SEQ ID NO: 31]
5 | 4.73 nM | 95% | Ac-LEGREKVRAK(Ac)I[Aib][Aib]EG[Nle]STWS[Aib]RK[PEG12]K([γGlu-γGlu-γGlu-Stearoyl])-NH2 [peptide of SEQ ID NO: 34]
6 | 2.5 nM | 78% | Ac-LEGREKVRAK(Ac)I[Aib][Aib]EG[Nle]ST[1Nal]S[Aib]RK[PEG12]K([γGlu-γGlu-γGlu-Palmitoyl])-NH2 (SMILES CCCCCCCCCCCCCCCC(=O)N[C@@H](CCC(=O)N[C@@H](CCC(=O)N[C@@H](CCC(=O)NCCCC[C@H](NC(=O)CCOCCOCCOCCOCCOCCOCCOCCOCCOCCOCCOCCOCCNC(=O)[C@H](CCCCN)NC(=O)[C@H](CCCNC(=N)N)NC(=O)C(C)(C)NC(=O)[C@H](CO)NC(=O)[C@H](Cc1cccc2ccccc12)NC(=O)[C@@H](NC(=O)[C@H](CO)NC(=O)[C@H](CCCC)NC(=O)CNC(=O)[C@H](CCC(=O)O)NC(=O)C(C)(C)NC(=O)C(C)(C)NC(=O)[C@@H](NC(=O)[C@H](CCCCNC(C)=O)NC(=O)[C@H](C)NC(=O)[C@H](CCCNC(=N)N)NC(=O)[C@@H](NC(=O)[C@H](CCCCN)NC(=O)[C@H](CCC(=O)O)NC(=O)[C@H](CCCNC(=N)N)NC(=O)CNC(=O)[C@H](CCC(=O)O)NC(=O)[C@H](CC(C)C)NC(C)=O)C(C)C)[C@@H](C)CC)[C@@H](C)O)C(N)=O)C(=O)O)C(=O)O)C(=O)O) [peptide of SEQ ID NO: 29]
7 | 0.92 nM | 89% | Ac-LEGREKVRAQI[Aib][Aib]EG[Nle]STWS[Aib]RK[PEG12]K([γGlu-γGlu-γGlu-Stearoyl])-NH2 (SMILES CCCCCCCCCCCCCCCCCC(=O)N[C@@H](CCC(=O)N[C@@H](CCC(=O)N[C@@H](CCC(=O)NCCCC[C@H](NC(=O)CCOCCOCCOCCOCCOCCOCCOCCOCCOCCOCCOCCOCCNC(=O)[C@H](CCCCN)NC(=O)[C@H](CCCNC(=N)N)NC(=O)C(C)(C)NC(=O)[C@H](CO)NC(=O)[C@H](Cc1c[nH]c2ccccc12)NC(=O)[C@@H](NC(=O)[C@H](CO)NC(=O)[C@H](CCCC)NC(=O)CNC(=O)[C@H](CCC(=O)O)NC(=O)C(C)(C)NC(=O)C(C)(C)NC(=O)[C@@H](NC(=O)[C@H](CCC(N)=O)NC(=O)[C@H](C)NC(=O)[C@H](CCCNC(=N)N)NC(=O)[C@@H](NC(=O)[C@H](CCCCN)NC(=O)[C@H](CCC(=O)O)NC(=O)[C@H](CCCNC(=N)N)NC(=O)CNC(=O)[C@H](CCC(=O)O)NC(=O)[C@H](CC(C)C)NC(C)=O)C(C)C)[C@@H](C)CC)[C@@H](C)O)C(N)=O)C(=O)O)C(=O)O)C(=O)O) [peptide of SEQ ID NO: 30]
8 | 1.69 nM | 95% | Ac-LEGREKVRAK(Ac)I[Aib][Aib]EGMSTWS[Aib]RK[PEG12]K([γGlu-γGlu-γGlu-Stearoyl])-NH2 (SMILES CCCCCCCCCCCCCCCCCC(=O)N[C@@H](CCC(=O)N[C@@H](CCC(=O)N[C@@H](CCC(=O)NCCCC[C@H](NC(=O)CCOCCOCCOCCOCCOCCOCCOCCOCCOCCOCCOCCOCCNC(=O)[C@H](CCCCN)NC(=O)[C@H](CCCNC(=N)N)NC(=O)C(C)(C)NC(=O)[C@H](CO)NC(=O)[C@H](Cc1c[nH]c2ccccc12)NC(=O)[C@@H](NC(=O)[C@H](CO)NC(=O)[C@H](CCSC)NC(=O)CNC(=O)[C@H](CCC(=O)O)NC(=O)C(C)(C)NC(=O)C(C)(C)NC(=O)[C@@H](NC(=O)[C@H](CCCCNC(C)=O)NC(=O)[C@H](C)NC(=O)[C@H](CCCNC(=N)N)NC(=O)[C@@H](NC(=O)[C@H](CCCCN)NC(=O)[C@H](CCC(=O)O)NC(=O)[C@H](CCCNC(=N)N)NC(=O)CNC(=O)[C@H](CCC(=O)O)NC(=O)[C@H](CC(C)C)NC(C)=O)C(C)C)[C@@H](C)CC)[C@@H](C)O)C(N)=O)C(=O)O)C(=O)O)C(=O)O) [peptide of SEQ ID NO: 35]
